Measured values as given in patent US11938198B2, “Treatment of heart disease by disruption of the anchoring of PP2A” (University of Miami, priority 2019, dated 2024).

Columns and labels:
PDE4D3 Ser-54 = PDE4D3 Ser-54 phosphorylation in mAKAP immunoprecipitates from transfected HEK293 cells (phospho-specific immunoblot); assay type: cell-based
[1] = tested on: adult rat ventricular myocytes (ARVM); experiment: ARVM morphologic hypertrophy (cell width and length by immunocytochemistry); assay type: cell-based; details: for PE-induced ARVM hypertrophy / basal ARVM morphology: adenoviral expression; for PE-induced ARVM hypertrophy: 20 μM PE 24 hours; for basal ARVM morphology: no drug
Method: Adult rat ventricular myocyte isolation and culture: 2-3 month old rats were anesthetized using Ketamine (80-100 mg/kg) and Xylazine (5-10 mg/kg) IP following 1000 U heparinization for cardiac excision. The heart was transferred immediately into chilled perfusion buffer (NaCl 120 mM, KCl 5.4 mM, Na2HPO4·7H2O 1.2 mM, NaHCO320.0 mM, MgCl2·6H2O 1.6 mM, Taurine 5 mM, Glucose 5.6 mM, 2,3-Butanedione monoxime 10 mM) pre-equilibrated with 95% O2 and 5% CO2. After removal of extraneous tissue, the heart was attached via the aorta to a Harvard Langendorff apparatus cannula. Ca^2+-free perfusion was used to flush out remaining blood with a constant rate of 8-10 mL/min at 37° C. The heart was then digested through circulatory perfusion with 50 mL perfusion buffer containing 125 mg type II collagenase (Worthington, 245 U/mg), 0.1 mg protease (Sigma type XIV) and 0.1% BSA. After perfusion, the atria were removed and the ventricular myocytes dissociated by slicing and repetitive pipetting. The debris was filtered by a 200 μm nylon mesh, and the myocytes collected by one minute centrifugation at 50 g. Ca^2+ concentration in the buffer was gradually recovered to 1.8 mM and the myocytes were resuspended in ACCT medium (M199 Medium (Invitrogen 11150-059), Creatine 5 mM, L-carnitine 2 mM, Taurine 5 mM, HEPES 25 mM, 2,3-Butanedione monoxime 10 mM, BSA 0.2% and 1×Insulin-Transferrin-Selenium Supplement) and plated on 10 μg/ml laminin pre-coated dishes. Cells were washed with ACCT medium 1.5 hours after plating and subjected to adenoviral infection or siRNA transfection, in which 100-200 Multiplicity of Infection (MOI) of adenovirus and 100 nmol/L siRNA mixed with Dharmafect1 (Dharmacon) were used, respectively. Adrenergic agonists were added the next day, with biochemical assay and morphological measurement performed after 24 hours of stimulation.
Immunocytochemistry: Myocytes on coverslips were fixed in 3.7% formaldehyde in PBS for 1 hour, permeabilized with 0.3% Triton X-100, and blocked in PBS containing 0.2% BSA and 1% horse serum. The slides were then sequentially incubated for 1 hour with primary and Alexa fluorescent dye-conjugated specific-secondary antibodies (Invitrogen, 1:1000) diluted in blocking buffer. The slips were washed three times with blocking buffer. 1 μg/mL Hoechst 33258 was included in the last wash stop to label nuclei. Slides were sealed in SlowFade Gold antifade buffer (Invitrogen, S36938) for fluorescent microscopy. Wide-field images were acquired using a Leica DM4000 Microscope.

PP2A-A subunit = biological target: T1, PP2A-A subunit (Homo sapiens, UniProt P30153); experiment: GST-PP2A-A pull-down of GFP-tagged mAKAP fragments expressed in HEK293 cells; assay type: binding; details: GFP-tagged fragments in HEK293 cell extracts
T1 construct: made in house; host or cells: bacteria
Method: GST-pulldowns—Glutathione resin adsorbed with PP2A-A subunit GST fusion protein or GST control protein were incubated with HEK293 cell extracts. After an overnight incubation, the beads were washed three times. Bound proteins were analyzed by immunoblotting.
mAKAP residues 2083-2319 contain the PP2A binding domain. In order to map the PP2A binding site on mAKAP, a bacterially-expressed PP2A-A subunit GST-fusion protein was used to pull down GFP-tagged fragments of mAKAP expressed in HEK293 cells (FIGS. 10A & B). GST-PP2A-A consistently pulled down only fragments of mAKAP containing a domain C-terminal to residue 2085.

PP2A = biological target: T2, PP2A (Homo sapiens, UniProt P30153+P67775); experiment: myc-tag immunoprecipitation of mAKAP fragments from HEK293 cells with phosphatase assay; assay type: binding; details: myc-tagged fragments expressed in HEK293 cells
T2 construct: endogenous in cells; host or cells: HEK293
Method: Immunoprecipitation—HEK293 cells were used in this project as a heterologous system lacking mAKAP in which the various wildtype and mutant proteins could be easily expressed. Cells cultured on 60 mm plates were transfected at 50%-70% confluency by the calcium phosphate method, using 6 μg of each DNA construct per plate. Cells were harvested 24 hours after transfection in 0.5 ml HSE buffer (HEPES, pH 7.4, 150 mM NaCl, 5 mM EDTA, 1% Triton X-100 and protease inhibitors). Supernatants were incubated with 3 μg antibody and 15 μl prewashed protein A- or G-agarose beads. Following overnight incubation at 4° C., the immunoprecipitates were washed three times with the same buffer. Bound proteins were analyzed by immunoblotting.
To measure phosphatase activity, immunoprecipitated protein complexes were washed twice in HSE buffer and once in PP2A reaction buffer. The immunoprecipitates were incubated for 30 minutes at 30° C. in 20 μl PP2A assay buffer containing 100,000 cpm [^32P]histone in the presence and absence of inhibitors. The PP2A inhibitor (Calbiochem) was used at a concentration of 30 nM. Purified I-1 was phosphorylated by PKA before using as a specific PP1 inhibitor. Reactions were terminated by the addition of 100 μl 20% TCA followed by 10 min centrifugation. TCA supernatants containing released ^32PO4 were measured by scintillation counting. […]

T1 sequence (P30153 whole entry, the tested form may be a part): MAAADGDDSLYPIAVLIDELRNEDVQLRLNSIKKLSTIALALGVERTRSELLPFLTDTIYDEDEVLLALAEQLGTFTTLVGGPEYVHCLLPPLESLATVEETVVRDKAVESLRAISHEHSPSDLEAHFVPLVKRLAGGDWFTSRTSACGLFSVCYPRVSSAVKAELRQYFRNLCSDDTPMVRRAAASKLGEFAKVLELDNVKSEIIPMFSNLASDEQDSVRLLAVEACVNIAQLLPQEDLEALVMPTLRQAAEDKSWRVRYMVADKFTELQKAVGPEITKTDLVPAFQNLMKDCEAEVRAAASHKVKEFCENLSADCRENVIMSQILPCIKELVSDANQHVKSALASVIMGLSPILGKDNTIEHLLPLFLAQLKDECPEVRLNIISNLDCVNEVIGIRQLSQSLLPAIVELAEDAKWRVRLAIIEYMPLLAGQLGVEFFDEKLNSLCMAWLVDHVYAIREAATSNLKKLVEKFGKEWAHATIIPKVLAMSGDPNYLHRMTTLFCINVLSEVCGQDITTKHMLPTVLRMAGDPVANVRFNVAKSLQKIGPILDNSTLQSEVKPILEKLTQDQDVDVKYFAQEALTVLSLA
T2 sequence (P67775 whole entry, the tested form may be a part): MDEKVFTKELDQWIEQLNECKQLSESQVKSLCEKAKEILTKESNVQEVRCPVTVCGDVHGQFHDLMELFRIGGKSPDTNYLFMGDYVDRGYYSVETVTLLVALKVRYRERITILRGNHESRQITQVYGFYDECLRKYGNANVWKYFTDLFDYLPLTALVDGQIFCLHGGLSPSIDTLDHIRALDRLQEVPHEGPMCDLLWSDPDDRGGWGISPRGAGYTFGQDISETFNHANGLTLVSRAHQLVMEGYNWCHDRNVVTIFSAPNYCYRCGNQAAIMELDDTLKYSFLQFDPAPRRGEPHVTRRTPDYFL
T2 sequence (P30153 whole entry, the tested form may be a part): as the sequence (P30153 whole entry, the tested form may be a part) above

C=C[C@@]1(C)CC(=O)[C@]2(O)[C@@]3(C)[C@@H](O)CCC(C)(C)[C@@H]3[C@H](O)[C@H](OC(C)=O)[C@@]2(C)O1 [Fsk, forskolin]
further enhancement of PDE4D3 Ser-54 phosphorylation by forskolin (PDE4D3 Ser-54; 5 μM Fsk 10 min, in the presence of OA): 1.8 fold
PDE4D3 Ser-54 phosphorylation, forskolin alone (PDE4D3 Ser-54; 5 μM Fsk, absence of phosphatase inhibition): no significant effect

CC(C)NCC(O)c1ccc(O)c(O)c1 (stereo not drawn) [Iso, isoproterenol, reference compound]
ARVM length and width under chronic β-adrenergic stimulation ([1]; 10 μM Iso, 24 hours): increased both ARVM length and width

CNC[C@H](O)c1cccc(O)c1 [PE, phenylephrine, reference compound]
decrease in ARVM length/width ratio ([1]; 20 μM PE, 24 hours): 8-14%
increase in ARVM width ([1]; 20 μM PE, 24 hours): 8-10%

B1: rat mAKAP 1835-2312: GFP-fusion fragment of rat mAKAP (protein)
chain: ANPSDTLDIEALLNGSIRCLSENNGNGKTPPRTHGSGTKGENKKSTYDVSKDPHVADMENGNIESTPEREREKPQGLPEVSENLASNVKTISESELSEYEAVMDGSEDSSVARKEFCPPNDRHPPQMGPKLQHPENQSGDCKPVQNPCPGLLSEAGVGSRQDSNGLKSLPNDAPSGARKPAGCCLLEQNETEESASISSNASCCNCKPDVFHQKDDEDCSVHDFVKEIIDMASTALKSKSQPESEVAAPTSLTQIKEKVLEHSHRPIHLRKGDFYSYLSLSSHDSDCGEVTNYIDEKSSTPLPPDAVDSGLDDKEDMDCFFEACVEDEPVNEEAGLPGALPNESAIEDGAEQKSEQKTASSPVLSDKTDLVPLSGLSPQKGADDAKEGDDVSHTSQGCAESTEPTTPSGKANAEGRSRMQGVSATPEENAASAKPKIQAFSLNAKQPKGKVAMRYPSPQTLTCKEKLVNFHEDRHSNM
modifications: left off: large carriers
binding to GST-PP2A-A (pull-down) (PP2A-A subunit): bound GST-PP2A-A

B2: human 2085-2319: GFP-fusion fragment of human mAKAP residues 2085-2319 (protein)
chain: TSLTQIKEKVLEHSHRPIQLRKGDFYSYLSLSSHDSDCGEVTNYIEEKSSTPLPLDTTDSGLDDKEDIECFFEACVEGDSDGEEPCFSSAPPNESAVPSEAAMPLQATACSSEFSDSSLSADDADTVALSSPSSQERAEVGKEVNGLPQTSSGCAENLEFTPSKLDSEKESSGKPGESGMPEEHNAASAKSKVQDLSLKANQPTDKAALHPSPKTLTCEENLLNLHEKRHRNMHR
modifications: left off: large carriers
binding to GST-PP2A-A (pull-down) (PP2A-A subunit): bound GST-PP2A-A

B3: mAKAP 1286-2312: myc-tagged mAKAP construct containing binding sites for PDE4D3, PKA and PP2A (protein)
chain: VYSLHNVELHEDSHTPFLKSSPKFTGTTQPTVLTKSLSKDSSFSSTKSLPDLLGGSGLVRPYSCHSGDLSQNSGSESGIVSEGDNEMPTNSDMSLFSMVDGSPSNPETEHPDPQMGDAANVLEQKFKDNGESIKLSSVSRASVSPVGCVNGKAGDLNSVTKHTADCLGEELQGKHDVFTFYDYSYLQGSKLKLPMIMKQPQSEKAHVEDPLLGGFYFDKKSCKAKHQASESQPDAPPHERILASAPHEMGRSAYKSSDIEKTFTGIQSARQLSLLSRSSSVESLSPGGDLFGLGIFKNGSDSLQRSTSLESWLTSYKSNEDLFSCHSSGDISVSSGSVGELSKRTLDLLNRLENIQSPSEQKIKRSVSDMTLQSSSQKMPFAGQMSLDVASSINEDSPASLTELSSSDELSLCSEDIVLHKNKIPESNASFRKRLNRSVADESDVNVSMIVNVSCTSACTDDEDDSDLLSSSTLTLTEEELCLKDEDDDSSIATDDEIYEESNLMSGLDYIKNELQTWIRPKLSLTREKKRSGVTDEIKVNKDGGGNEKANPSDTLDIEALLNGSIRCLSENNGNGKTPPRTHGSGTKGENKKSTYDVSKDPHVADMENGNIESTPEREREKPQGLPEVSENLASNVKTISESELSEYEAVMDGSEDSSVARKEFCPPNDRHPPQMGPKLQHPENQSGDCKPVQNPCPGLLSEAGVGSRQDSNGLKSLPNDAPSGARKPAGCCLLEQNETEESASISSNASCCNCKPDVFHQKDDEDCSVHDFVKEIIDMASTALKSKSQPESEVAAPTSLTQIKEKVLEHSHRPIHLRKGDFYSYLSLSSHDSDCGEVTNYIDEKSSTPLPPDAVDSGLDDKEDMDCFFEACVEDEPVNEEAGLPGALPNESAIEDGAEQKSEQKTASSPVLSDKTDLVPLSGLSPQKGADDAKEGDDVSHTSQGCAESTEPTTPSGKANAEGRSRMQGVSATPEENAASAKPKIQAFSLNAKQPKGKVAMRYPSPQTLTCKEKLVNFHEDRHSNM
modifications: left off: small tags and cut ends
co-immunoprecipitation with OA-sensitive phosphatase activity (PP2A): co-immunoprecipitated with OA-sensitive phosphatase activity

B4: SRF S103D: SRF phosphomimetic mutant expressed by adenovirus (protein, UniProt P11831 1-508, looked up, variant S103D)
Serum response factor: MLPTQAGAAAALGRGSALGGSLNRTPTGRPGGGGGTRGANGGRVPGNGAGLGPGRLEREAAAAAATTPAPTAGALYSGSEGDSESGEEEELGAERRGLKRSLDEMEIGMVVGGPEASAAATGGYGPVSGAVSGAKPGKKTRGRVKIKMEFIDNKLRRYTTFSKRKTGIMKKAYELSTLTGTQVLLLVASETGHVYTFATRKLQPMITSETGKALIQTCLNSPDSPPRSDPTTDQRMSATGFEETDLTYQVSESDSSGETKDTLKPAFTVTNLPGTTSTIQTAPSTSTTMQVSSGPSFPITNYLAPVSASVSPSAVSSANGTVLKSTGSGPVSSGGLMQLPTSFTLMPGGAVAQQVPVQAIQVHQAPQQASPSRDSSTDLTQTSSSGTVTLPATIMTSSVPTTVGGHMMYPSPHAVMYAPTSGLGDGSLTVLNAFSQAPSTMQVSHSQVQEPGGVPQVFLTASSGTVQIPVSAVQLHQMAVIGQQAGSSSNLTELQVVNLDTAHSTKSE
PE-induced ARVM hypertrophy [1]: did not enhance nor diminish
basal ARVM morphology [1]: increased ARVM width

B5: SRF S103A: SRF Ser103-to-alanine mutant expressed by adenovirus (protein, UniProt P11831 1-508, looked up, variant S103A)
Serum response factor: MLPTQAGAAAALGRGSALGGSLNRTPTGRPGGGGGTRGANGGRVPGNGAGLGPGRLEREAAAAAATTPAPTAGALYSGSEGDSESGEEEELGAERRGLKRSLAEMEIGMVVGGPEASAAATGGYGPVSGAVSGAKPGKKTRGRVKIKMEFIDNKLRRYTTFSKRKTGIMKKAYELSTLTGTQVLLLVASETGHVYTFATRKLQPMITSETGKALIQTCLNSPDSPPRSDPTTDQRMSATGFEETDLTYQVSESDSSGETKDTLKPAFTVTNLPGTTSTIQTAPSTSTTMQVSSGPSFPITNYLAPVSASVSPSAVSSANGTVLKSTGSGPVSSGGLMQLPTSFTLMPGGAVAQQVPVQAIQVHQAPQQASPSRDSSTDLTQTSSSGTVTLPATIMTSSVPTTVGGHMMYPSPHAVMYAPTSGLGDGSLTVLNAFSQAPSTMQVSHSQVQEPGGVPQVFLTASSGTVQIPVSAVQLHQMAVIGQQAGSSSNLTELQVVNLDTAHSTKSE
PE-induced ARVM hypertrophy [1]: inhibited the PE-induced concentric hypertrophy
basal ARVM morphology [1]: did not affect basal myocyte size
